In patent US20140086916A1 (Merck Sharp & Dohme, published 2014):

T1: FcγRIIb (Pichia pastoris produced) (UniProt P31994 43-217, limits assumed)
T1 construct: also called FcgRIIB; CD32B
T1 sequence (looked up): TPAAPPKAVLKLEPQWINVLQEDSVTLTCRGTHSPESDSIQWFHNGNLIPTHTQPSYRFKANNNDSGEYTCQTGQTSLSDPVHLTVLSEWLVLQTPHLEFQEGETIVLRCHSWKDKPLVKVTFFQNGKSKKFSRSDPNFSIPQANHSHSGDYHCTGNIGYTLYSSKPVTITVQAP


What was measured:
FcγRI (R&D Systems) = molecular target: T2, FcγRI (R&D Systems) (UniProt P12314 16-288); assay: ELISA-type plate assay, FcγRI coated, monomeric antibody, detected with AP-conjugated goat anti-human IgG F(ab')2, RFU readout
T2 construct: Bought reagent, coated on the plate at 1 µg/mL; also called Fc gamma receptor I; CD64
T2 sequence (P12314 16-288 limits assumed): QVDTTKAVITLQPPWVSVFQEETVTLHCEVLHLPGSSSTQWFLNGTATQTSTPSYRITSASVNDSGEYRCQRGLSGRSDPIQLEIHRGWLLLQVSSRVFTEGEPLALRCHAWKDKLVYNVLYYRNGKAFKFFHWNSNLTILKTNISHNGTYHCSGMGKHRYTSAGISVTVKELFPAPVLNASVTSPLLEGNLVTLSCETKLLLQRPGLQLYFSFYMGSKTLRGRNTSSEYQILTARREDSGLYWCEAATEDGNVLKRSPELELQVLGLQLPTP
Protocol: (§1) Fcγ receptor binding assays were carried out as described (Shields, et al. (2001) J. Biol. Chem. 276:6591-6604) with minor modifications. High protein binding 96-well plates (Corning Costar) were coated with 100 μL per well of Fcγ receptor solutions in PBS at the following concentrations: 1 μg/mL for both FcγRI (R&D Systems) and FcγRIIa (Pichia pastoris produced), 2 μg/mL for FcγRIIb (P. pastoris produced), 0.8 μg/mL for FcγRIIIa-F158, and 0.4 μg/mL for FcγRIIIa-V158 (both P. pastoris produced). All Pichia pastoris produced receptors were expressed and purified as described (Li, et al. (2006) Nature Biotechnology 24:210-215). Monomeric antibody samples added to the FcγRI plate were serially diluted in assay diluent (1×PBS, 1% BSA, and 0.05% Tween20) and 100 μL, per well was added to the plate. Antibody samples prepared for the remaining receptors require a one hour dimerization step with half molar ratio of goat anti-human IgG F(ab′)2 F(ab′)2 that is conjugated with alkaline phosphatase for detection. […] FcγRI bound sample antibody was detected using the same goat anti-human IgG F(ab′)2 alkaline phosphatase conjugated F(ab′)2. Sample antibody binding was quantified by measuring excitation at 340 nm and emission at 465 nm after 18 hour incubation with SuperPhos, 4-MUP Fluorescence AP Substrate Detection System (Virolabs).

[1] = molecular target: T3, FcγRIIIa-F158 (Pichia pastoris produced) (UniProt P08637 17-208, limits assumed); assay: ELISA-type plate assay, FcγR coated, antibody dimerized with AP-conjugated goat anti-human IgG F(ab')2, RFU readout
T3 construct: also called FcγRIIIA LF; FcgRIIIA LF
T3 sequence (P08637 17-208 limits assumed): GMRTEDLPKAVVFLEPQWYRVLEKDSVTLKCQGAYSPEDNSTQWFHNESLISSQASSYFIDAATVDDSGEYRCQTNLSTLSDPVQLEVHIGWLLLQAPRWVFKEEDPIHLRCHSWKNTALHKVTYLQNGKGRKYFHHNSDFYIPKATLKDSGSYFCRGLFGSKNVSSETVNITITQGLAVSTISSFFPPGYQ
Protocol: (§2) Fcγ receptor binding assays were carried out as described (Shields, et al. (2001) J. Biol. Chem. 276:6591-6604) with minor modifications. High protein binding 96-well plates (Corning Costar) were coated with 100 μL per well of Fcγ receptor solutions in PBS at the following concentrations: 1 μg/mL for both FcγRI (R&D Systems) and FcγRIIa (Pichia pastoris produced), 2 μg/mL for FcγRIIb (P. pastoris produced), 0.8 μg/mL for FcγRIIIa-F158, and 0.4 μg/mL for FcγRIIIa-V158 (both P. pastoris produced). All Pichia pastoris produced receptors were expressed and purified as described (Li, et al. (2006) Nature Biotechnology 24:210-215). Monomeric antibody samples added to the FcγRI plate were serially diluted in assay diluent (1×PBS, 1% BSA, and 0.05% Tween20) and 100 μL, per well was added to the plate. Antibody samples prepared for the remaining receptors require a one hour dimerization step with half molar ratio of goat anti-human IgG F(ab′)2 F(ab′)2 that is conjugated with alkaline phosphatase for detection. These dimerized F(ab′)2/antibody complexes were also serially diluted and 100 μL per well were added to the remaining receptor plates and all plates were incubated for one hour at room temperature. FcγRI bound sample antibody was detected using the same goat anti-human IgG F(ab′)2 alkaline phosphatase conjugated F(ab′)2. Sample antibody binding was quantified by measuring excitation at 340 nm and emission at 465 nm after 18 hour incubation with SuperPhos, 4-MUP Fluorescence AP Substrate Detection System (Virolabs).

[2] = molecular target: T1, FcγRIIb (Pichia pastoris produced); assay: as above
Protocol: as §2

[3] = molecular target: T3, FcγRIIIa-F158 (Pichia pastoris produced); assay: ELISA on plate-coated receptor; antibody dimerized with anti-human IgG F(ab')2-AP; ELISA IC50, YGLY23258 (dimer), Table 7 experiment
Protocol: as §1

[4] = molecular target: T4, FcγRIIIa-V158 (Pichia pastoris produced) (UniProt P08637 17-208, limits assumed); assay: as above
T4 construct: also called FcγRIIIA LV; FcgRIIIA LV
T4 sequence (P08637 17-208 F176V limits assumed): as the sequence (P08637 17-208 limits assumed) above, with F160V counted along it
Protocol: as §1

[5] = molecular target: T3, FcγRIIIa-F158 (Pichia pastoris produced); assay: fold change of the Table 12 affinities
Protocol: as §2

[6] = molecular target: T4, FcγRIIIa-V158 (Pichia pastoris produced); assay: fold change of the Table 12 affinities
Protocol: as §2

EC50 (read off the curve) (FcγRI (R&D Systems))	EC50 (read off the curve) [1]	EC50 (read off the curve) [2]	IC50 [3]	IC50 [4]	fold change in affinity vs 1F11 IgG1 GS5.0 [5]	fold change in affinity vs 1F11 IgG1 GS5.0 [6]	Binder
~0.08 µg/mL	~0.02 µg/mL	~0.2 µg/mL	–	–	–	–	1F11 wildtype (parent) humanized anti-PCSK9 monoclonal IgG1 antibody (antibody, Produced in glycoengineered Pichia pastoris GFI5.0 (strain YGLY21351); also called 1F11 IgG1 GS5.0; YGLY21351) heavy: not shown light: DIQMTQSPSSLSASVGDRVTITCKASQNVGTNVVWYQQKPGKAPKALIHSASYRYSGVPSRFSGSGSGTDFTLTISSLQPEDFATYYCQQYKTYPYTFGQGTKVEIKRTVAAPSVFIFPPSDEQLKSGTASVVCLLNNFYPREAKVQWKVDNALQSGNSQESVTEQDSKDSTYSLSSTLTLSKADYEKHKVYACEVTHQGLSSPVTKSFNRGEC
–	–	–	1.31 µg/mL	0.16 µg/mL	12 fold	647 fold	1F11 IgG1 F243A/V264A double mutein anti-PCSK9 antibody (antibody, sialylated N-glycans; also called 1F11 DM; YGLY23258) heavy: not shown light: DIQMTQSPSSLSASVGDRVTITCKASQNVGTNVVWYQQKPGKAPKALIHSASYRYSGVPSRFSGSGSGTDFTLTISSLQPEDFATYYCQQYKTYPYTFGQGTKVEIKRTVAAPSVFIFPPSDEQLKSGTASVVCLLNNFYPREAKVQWKVDNALQSGNSQESVTEQDSKDSTYSLSSTLTLSKADYEKHKVYACEVTHQGLSSPVTKSFNRGEC
